Values of other authors in publication PMC5753150 (Beilstein Journal of Organic Chemistry, 2017).

Tested on: dipeptidyl peptidase
Conditions: wild-type peptide; cited from earlier work
Text: Several laboratories have focused on introducing highly fluorinated analogues of hydrophobic amino acids and have studied the effects on stability of the resulting proteins towards thermal and chemical denaturation. These studies prompted further investigation into the extent to which fluorinated amino acids stabilize peptides and proteins against proteolytic degradation in particular. Meng and Kumar reported that the incorporation of 5,5,5,5’,5’,5’-hexafluoroleucine (HfLeu) into the antimicrobial peptides magainin 2 amide and buforin enhanced their resistance towards proteolyt ...

glucagon-like-peptide-1 [GLP-1]
Time of rapid digestion by the serine protease dipeptidyl peptidase: ≈ 2 min
